The values that follow come from publication PMC11532496.

Experiment [1] addresses non-stabilized CE1 design Env SOSIP trimer (CH505.M5.G458Y N386R without F14 and 2P) (HIV-1) (UniProt Q2N0S6). As to the kind of experiment: SPR. On the technique in general: Surface plasmon resonance follows binding to a sensor surface in real time, without labels.
In experiment [2] the target is CH848-d949 DE3 design Env SOSIP trimer (N408K/N442A) (HIV-1). Briefly: SPR.

Regarding CH235.12 Fab, the fold change of ka against CH505.M5.G458Y in experiment [1] was found to be 2 fold.

B1: DH270 lineage intermediate I5.6 Fab (Fab, V domains shown)
VH: QVQLVQSGAEVKKPGASVKVSCKASGYTFTDYYIHWVRQAPGQGLEWMGWINPNTGRTNSAQKFQGRVTMTRDTSISTAYMELSRLRSDDTAVYYCARGGWIGLYYDSSGYPNFDYWGQGTLVTVSS
VL: QSALTQPASVSGSPGQSITISCTGTSYDVGSYNLVSWYQQHPGKAPKLMIYEVSKRPSGVSNRFSGSKSGNTASLTISGLQAEDEADYYCCSYAGSSTVVFGGGTKLTVL
Molecule B1 returned a fold change of ka against the unmutated CH848-d949 trimer in experiment [2] of 45 fold.
